One molecule from patent US20050130130A1 (INSTITUT NATIONAL DE LA SANTE ET DE LA RECHERCHE MEDICALE …, published 2005) can be followed below.

The assay has as its target T1, p50.2 KAR (human, UniProt P43631 22-304).
T1 construct: whole, on cells; also called KAR of D.F. NK cells; KAR p50.2
Description: anti-CD158 immunoprecipitation from NK cell lysates, immunotransfer with anti-FcεRIγ.

T1 sequence (P43631 22-304): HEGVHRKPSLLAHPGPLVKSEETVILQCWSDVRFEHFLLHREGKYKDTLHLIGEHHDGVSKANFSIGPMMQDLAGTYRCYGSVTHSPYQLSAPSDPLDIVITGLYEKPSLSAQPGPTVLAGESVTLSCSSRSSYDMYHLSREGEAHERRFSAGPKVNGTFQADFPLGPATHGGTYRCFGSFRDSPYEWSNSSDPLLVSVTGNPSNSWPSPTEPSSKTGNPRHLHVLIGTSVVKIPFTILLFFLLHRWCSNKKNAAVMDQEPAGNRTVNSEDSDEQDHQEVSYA

B1: FcεRIγ (other, human, UniProt P30273 19-86, looked up)
chain: LGEPQLCYILDAILFLYGIVLTLLYCRLKIQVRKAAITSYEKSDGVYTGLSTRNQETYETLKHEKPPQ
notes: whole, on cells; Endogenous protein in NK cell lysates; also called FcεRI gamma
For the molecule B1, the binding result was “no binding”.
